The numbers were not newly measured in patent US20250333489A1 (ANDREMACON S.R.L., priority 2021, published 2025), which cites them from elsewhere.

The data set has as its target T1, EphB4 (Homo sapiens, UniProt P54760).
T1 sequence (P54760 16-987): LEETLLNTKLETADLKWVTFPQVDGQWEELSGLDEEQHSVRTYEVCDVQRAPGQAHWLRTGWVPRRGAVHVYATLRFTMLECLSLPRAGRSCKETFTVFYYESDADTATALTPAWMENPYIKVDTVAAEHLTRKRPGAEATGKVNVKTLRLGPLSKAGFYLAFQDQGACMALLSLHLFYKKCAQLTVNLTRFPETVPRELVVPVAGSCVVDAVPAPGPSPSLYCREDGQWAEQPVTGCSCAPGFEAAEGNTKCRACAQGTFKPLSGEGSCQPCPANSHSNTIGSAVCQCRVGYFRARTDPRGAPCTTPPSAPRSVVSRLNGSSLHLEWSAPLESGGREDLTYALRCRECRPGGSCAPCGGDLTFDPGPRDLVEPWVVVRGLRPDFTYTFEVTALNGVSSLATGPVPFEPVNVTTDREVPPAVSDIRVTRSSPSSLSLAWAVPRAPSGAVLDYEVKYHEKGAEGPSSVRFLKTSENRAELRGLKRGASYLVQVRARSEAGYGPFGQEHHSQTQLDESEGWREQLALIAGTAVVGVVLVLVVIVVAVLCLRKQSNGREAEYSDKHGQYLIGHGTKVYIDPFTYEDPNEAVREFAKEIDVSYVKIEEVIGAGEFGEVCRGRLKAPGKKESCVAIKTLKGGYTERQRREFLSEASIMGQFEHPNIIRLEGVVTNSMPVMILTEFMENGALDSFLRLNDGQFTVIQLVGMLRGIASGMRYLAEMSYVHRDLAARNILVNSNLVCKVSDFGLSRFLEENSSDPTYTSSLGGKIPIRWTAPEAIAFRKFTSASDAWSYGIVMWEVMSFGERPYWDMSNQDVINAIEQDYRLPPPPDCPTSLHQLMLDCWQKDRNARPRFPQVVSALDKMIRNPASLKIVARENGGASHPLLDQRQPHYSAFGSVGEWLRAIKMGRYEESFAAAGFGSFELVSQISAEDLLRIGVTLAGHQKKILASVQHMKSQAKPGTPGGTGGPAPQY
To be noted: read-out: binding affinity of Epo for EphB4 (KD).

The Kd is the free concentration of one partner at which half of the binding sites on the other are occupied at equilibrium, for simple one-to-one binding. In the case of “Epo: 30.4 kDa glycoprotein produced and secreted mainly by the kidneys; main erythropoietic hormone”, the Kd was 880 nM.
